Experimental data taken from publication PMC11215725, “A Potent Sybody Selectively Inhibits α-Synuclein Amyloid Formation by Binding to the P1 Region” (Journal of Medicinal Chemistry, 2024).
* marks the point of attachment. Biotin = O=C1N[C@H]2[C@H](CS[C@H]2CCCCC(=O)*)N1

Key:
[1] = target: T1, synthetic peptide with the sequence of P1 from α-syn (Homo sapiens (Human)., SMILES CC(C)C[C@H](NC(=O)[C@@H](NC(=O)CNC(=O)CCCC[C@@H]1SC[C@@H]2NC(=O)N[C@@H]21)C(C)C)C(=O)N[C@@H](Cc1ccc(O)cc1)C(=O)N[C@H](C(=O)NCC(=O)N[C@@H](CO)C(N)=O)C(C)C); test: ELISA; screen in 96 wells: protein A coated, anti-c-Myc antibody, sybody from diluted periplasmic extract captured, then 500 nM biotinylated peptide, streptavidin-HRP; TBS with 0.5% BSA; OD 650 nm; settings: one partner purified
T1 construct: P1 region of α-synuclein, residues 36-42; also called P1 peptide; peptide P1; source: synthetic peptide, bought: GenScript
T1 chain: Biotin-GVLYVGS-NH2

[2] = target: WT α-syn stabilized oligomers (Homo sapiens (Human)., UniProt P37840); test: ELISA; 80 pmol αSP1 immobilised on the plate, 160 pmol of each α-syn species added, detection by anti-α-syn-HRP; blocking with 5% goat serum in TBS; settings: both partners purified
[3] = target: WT α-syn samples collected after aggregation for 48 h (Homo sapiens (Human)., UniProt P37840); test: ELISA; indirect ELISA: aliquots of a 20 μM WT α-syn aggregation taken at 0, 5, 10, 24 and 48 h coated on the plate, 2 μM αSP1, detection by anti-six-His HRP; settings: both partners purified
[4] = target: wild-type α-synuclein, monomeric (UniProt P37840); test: ELISA; indirect ELISA: 30 μM WT or ΔP1 α-syn monomers coated on MaxiSorp plate, 1-10 μM αSP1 for 1 h at room temperature, detection by anti-six-His HRP; TBS; settings: both partners purified

Measured: binding result

B1: sybody αSP1 (VHH)
VHH: QVQLVESGGGLVQAGGSLRLSCAASGFPVRHQWMEWYRQAPGKEREWVAAISSFGQWTKYADSVKGRFTISRDNAKNTVYLQMNSLKPEDTAVYYCVVEVGYEYYGQGTQVTVSA
notes: His35 stands in CDR1; Synthetic single-domain antibody; results: NTA-Alexa Fluor 647; this is not a covalent change of a residue; also called aSP1; source: in periplasmic extract for the screen; purified (Ni-NTA, SEC) for all other experiments; not shown: Myc, C-terminal, kept; His tag, C-terminal, kept
binds: all assays above
